In patent US20240390512A1, “METHODS OF TREATING CHEMOTHERAPY-RESISTANT CANCER WITH AN ANTIBODY-DRUG CONJUGATE” (DAIICHI SANKYO COMPANY, LIMITED, priority 2021, published 2024):

System: cynomolgus monkey CDH6
Test: Hybridoma screening by Cell-ELISA and flow cytometry
Format: binding
Details: hybridoma culture supernatant; cells transfected with pcDNA3.1-cynoCDH6
Method: 293α cells (a stable expression cell line derived from HEK293 cells expressing integrin αv and integrin β3) were prepared at 5×10^5 cells/mL in DMEM medium supplemented with 10% FBS. In accordance with transduction procedures for using Lipofectamine 2000 (Thermo Fisher Scientific Inc.), DNA of pcDNA3.1-hCDH6 or pcDNA3.1-cynoCDH6, or pcDNA3.1 as a negative control was introduced into the 293α cells, and the cells were dispensed in an amount of 100 μL/well onto a 96-well plate (Corning Inc.). Thereafter, the cells were cultured under conditions of 37° C. and 5% CO2 in DMEM medium supplemented with 10% FBS for 24 to 27 hours. The obtained transfected cells were used for Cell-ELISA in an adhesive state.
The culture supernatant of the 293α cells transfected with the expression vector prepared in Reference Example 1)-4-1 was removed, and the culture supernatant from each hybridoma was then added to the 293α cells transfected with pcDNA3.1-hCDH6 or pcDNA3.1-cynoCDH6, or pcDNA3.1. The cells were left standing at 4° C. for 1 hour. The cells in the wells were washed once with PBS (+) supplemented with 5% FBS, and thereafter, Anti-Rat IgG-Peroxidase antibody produced in rabbit (Sigma-Aldrich Co. LLC) that had been 500-fold diluted with PBS (+) supplemented with 5% FBS was added to the wells. The cells were left standing at 4° C. for 1 hour. The cells in the wells were washed three times with PBS (+) supplemented with 5% FBS, and thereafter, OPD coloring solution (which had been prepared by dissolving o-phenylenediamine dihydrochloride (Wako Pure Chemical Industries, Ltd.) and H2O2 in an OPD solution (0.05 M trisodium citrate, 0.1 M disodium hydrogen phosphate 12-water; pH 4.5), so that the substances became 0.4 mg/ml and 0.6% (v/v), respectively, was added in an amount of 100 μL/well to the wells. A coloring reaction was carried out with occasional stirring. Thereafter, 1 M HCl was added to the plate (100 μL/well) to terminate the coloring reaction, followed by measurement of the absorbance at 490 nm using a plate reader (ENVISION: PerkinElmer, Inc.).
293T cells were seeded in a 225-cm^2 flask (Sumitomo Bakelite Co., Ltd.) at 5×10^4 cells/cm^2, and the cells were then cultured overnight under conditions of 37° C. and 5% CO2 in DMEM medium supplemented with 10% FBS. pcDNA3.1-cynoCDH6 or pcDNA3.1 as a negative control was introduced into the 293T cells using Lipofectamine 2000, and the cells were further cultured overnight under conditions of 37° C. and 5% CO2. […]
The binding specificity to cynomolgus monkey CDH6 of an antibody produced from the human CDH6- and cynomolgus monkey CDH6-binding antibody-producing hybridomas that had been selected by Cell-ELISA in Reference Example 1)-4 was further confirmed by flow cytometry. […] The data was analyzed using FlowJo (Tree Star, Inc.). […]

cynomolgus monkey CDH6, sequence (as listed by the source): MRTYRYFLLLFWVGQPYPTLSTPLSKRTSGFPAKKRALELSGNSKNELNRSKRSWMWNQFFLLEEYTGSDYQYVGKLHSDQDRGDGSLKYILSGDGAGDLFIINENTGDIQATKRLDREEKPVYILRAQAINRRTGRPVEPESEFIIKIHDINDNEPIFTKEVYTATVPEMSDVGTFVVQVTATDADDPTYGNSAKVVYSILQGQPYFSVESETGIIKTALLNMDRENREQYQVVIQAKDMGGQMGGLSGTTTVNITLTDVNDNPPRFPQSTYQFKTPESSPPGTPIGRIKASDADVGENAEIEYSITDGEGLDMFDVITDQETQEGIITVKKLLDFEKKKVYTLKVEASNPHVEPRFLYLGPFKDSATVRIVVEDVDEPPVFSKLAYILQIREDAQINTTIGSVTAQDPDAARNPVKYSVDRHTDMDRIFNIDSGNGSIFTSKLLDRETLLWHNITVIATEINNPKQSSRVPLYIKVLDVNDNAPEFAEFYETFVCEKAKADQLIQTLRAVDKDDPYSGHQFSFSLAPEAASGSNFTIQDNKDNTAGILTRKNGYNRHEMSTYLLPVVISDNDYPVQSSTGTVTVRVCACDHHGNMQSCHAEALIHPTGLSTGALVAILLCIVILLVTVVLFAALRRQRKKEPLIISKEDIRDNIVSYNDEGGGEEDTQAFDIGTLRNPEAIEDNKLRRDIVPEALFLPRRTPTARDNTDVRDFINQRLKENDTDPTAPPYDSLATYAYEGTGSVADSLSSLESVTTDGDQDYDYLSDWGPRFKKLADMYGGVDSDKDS

Row | Molecule | binding to monkey CDH6
1 | rG019: rat anti-human CDH6 monoclonal antibody produced by hybridoma rG019; variable regions SEQ ID NO: 10 and 15 (antibody, listed as Rattus norvegicus, V domains shown) VL: DIQMTQSPSLLSASVGDRVTLNCKASQNIYKNLAWYQQKLGEGPKLLIYDANTLQTGIPSRFSGSGSGSDFTLTISSLQPEDVATYFCQQYYSGWAFGGVTNLELKRA VH: QVQLQQSGAELVKPGSSVKISCKASGYTFTRNFMHWIKQQPGNGLEWIGWIYCGDGETEYNQKFNGKATLTADRSSSTAYMELSRLTSEDSAVYFCARGVYGGFAGGYFDFWGQGVMVTVSS | bind specifically and strongly
2 | rG055: rat anti-human CDH6 monoclonal antibody produced by hybridoma rG055; variable regions SEQ ID NO: 20 and 25 (antibody, listed as Rattus norvegicus, V domains shown) VL: DVQMTHSPSYLAASPGESVSISCKTSKNISNYLVWYQQKPGEAYKLLIYSGSTLQSGTPSRFSGSGSGTDFTLTIRSLEPEDFGLYFCQQYYEKPFTFGSGTKLEIKRA VH: EVQLQESGPGLVRPSQSLSLSCSVTDYSITSNYWGWIRRFPGNKMEWMGYITYSGYTSYNPSLQSRISITRDTSKNQFFLQLNSVTAEDTATYYCARSINHGGYSYVVDAWGPGASVTVSS | bind specifically and strongly
3 | rG061: rat anti-human CDH6 monoclonal antibody produced by hybridoma rG061; variable regions SEQ ID NO: 40 and 45 (antibody, listed as Rattus norvegicus, V domains shown) VL: DVQMTQSPSYLAASPGESVSISCKATKSISNYLAWYQQKPGEAYKVLIYSGSTLQSGTPSRFSGSGSGTDFTLTIRSLEPEDFGLYSCQQYYEKPLTFGSGTKLEIKRA VH: EVQLQESGPGLVKPSQSLSLTCSVTGYSITTYYWGWIRKFPGNKMEWMGYISYSGRTSYNPSLKSRMSITRDASKNQFFLQLNSVTTDDTATYYCARSPINHGGYWYFDFWGPGTMVTVSS | bind specifically and strongly
4 | rG056: rat anti-human CDH6 monoclonal antibody produced by hybridoma rG056; variable regions SEQ ID NO: 30 and 35 (antibody, listed as Rattus norvegicus, V domains shown) VL: DVQMTQSPSSLAASPGESVSISCRATKSIGIYLAWYQQKPGKTFKLLIYSGSTLQSGTPSRFSGSGSGTDFTLTIRSLEPEDFGLYFCQQFYENPFTFGSGTKLEIRRA VH: EVQLQESGPGLVKPSQSLSLTCSVTDYSITTYFWGWIRKFPGNKMEWMGYMSYRGGTSYNPSLKSRISITRDTSKNQFFLQLNSVTTEDTATYYCARCPNYGGHSLVFDYWGQGVMVTVSS | bind specifically and strongly
